# Experimental data taken from patent US20230399417A1 (Genentech, published 2023).
# No end group written: not given here.
# B1: CJ11 Fab (Fab, V domains shown)
# VH: QSVEESGGGLVTPGTPLTLTCTVSGIDLSRYAMSWVRQAPGKGLEWIGIFGSLGGIFYASWAKGRFTISKTSPTTVDLKITSPTTEDTATYFCARMPYTTDRDFWGPGTLVTVSS
# VL: DIVMTQTPSSTSAAVGGTVTITCQASQSVANNNYLKWYQQKRGQPPKQLIYSVSTLASGVPSRFKGSGSGTQFTLTISDLECDDAATYYCSGYFNNNIGAFGGGTKLEIK
# notes: also called its Fab
# B2: CJ11 Fab modified by reductive lysine methylation (Fab, V domains shown)
# VH: B1 VH
# VL: B1 VL
# modifications: lysines modified by reductive methylation
# Columns and labels:
# [1] = target: T1, mouse IL-1β peptide 21LFFEVD26 (mouse); assay: X-ray co-crystal structure
# T1 construct: Liberated C-terminus of the noncanonical cleavage site, with free C-terminal Asp
# T1 peptide: LFFEVD-OH
# IL-18 peptide 30GDLESD35 = target: T2, IL-18 peptide 30GDLESD35; assay: X-ray co-crystal structure
# T2 construct: Liberated C-terminus of IL-18, with free C-terminal Asp
# T2 peptide: GDLESD
binder,measurement,setting,value
B1,binding result,[1],binds
B2,binding result,IL-18 peptide 30GDLESD35,binds
